# T1: full-length Transportin-1 (Trn1), wild type (human, UniProt Q92973 1-898)
# T1 sequence (looked up): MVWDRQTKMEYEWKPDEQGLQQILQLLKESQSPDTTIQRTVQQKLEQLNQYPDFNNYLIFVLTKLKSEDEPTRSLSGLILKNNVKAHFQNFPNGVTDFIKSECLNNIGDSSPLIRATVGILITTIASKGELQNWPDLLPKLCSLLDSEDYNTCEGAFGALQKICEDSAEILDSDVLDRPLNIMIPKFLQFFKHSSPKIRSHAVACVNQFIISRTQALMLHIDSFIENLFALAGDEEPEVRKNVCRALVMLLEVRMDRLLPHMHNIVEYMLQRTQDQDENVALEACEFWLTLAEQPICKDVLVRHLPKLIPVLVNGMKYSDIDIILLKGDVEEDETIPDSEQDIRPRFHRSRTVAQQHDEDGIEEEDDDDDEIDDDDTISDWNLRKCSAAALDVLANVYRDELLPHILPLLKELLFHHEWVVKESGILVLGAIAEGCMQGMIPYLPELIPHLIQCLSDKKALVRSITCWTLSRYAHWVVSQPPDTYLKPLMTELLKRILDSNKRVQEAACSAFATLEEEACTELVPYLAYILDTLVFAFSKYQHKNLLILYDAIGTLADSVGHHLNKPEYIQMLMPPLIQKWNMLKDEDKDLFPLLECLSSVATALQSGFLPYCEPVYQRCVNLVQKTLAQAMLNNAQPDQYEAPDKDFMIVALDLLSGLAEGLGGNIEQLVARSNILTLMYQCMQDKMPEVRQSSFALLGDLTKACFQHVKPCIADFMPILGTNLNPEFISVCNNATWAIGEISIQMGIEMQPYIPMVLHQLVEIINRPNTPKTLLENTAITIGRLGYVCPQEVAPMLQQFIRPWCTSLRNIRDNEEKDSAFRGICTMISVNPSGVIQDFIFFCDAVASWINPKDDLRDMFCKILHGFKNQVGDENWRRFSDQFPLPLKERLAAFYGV
# T2: Trn1Δloop (HEAT repeat 8 loop replaced with the GGSGGSG linker) (human, UniProt Q92973 1-343; Q92973 376-898)
# T2 chain: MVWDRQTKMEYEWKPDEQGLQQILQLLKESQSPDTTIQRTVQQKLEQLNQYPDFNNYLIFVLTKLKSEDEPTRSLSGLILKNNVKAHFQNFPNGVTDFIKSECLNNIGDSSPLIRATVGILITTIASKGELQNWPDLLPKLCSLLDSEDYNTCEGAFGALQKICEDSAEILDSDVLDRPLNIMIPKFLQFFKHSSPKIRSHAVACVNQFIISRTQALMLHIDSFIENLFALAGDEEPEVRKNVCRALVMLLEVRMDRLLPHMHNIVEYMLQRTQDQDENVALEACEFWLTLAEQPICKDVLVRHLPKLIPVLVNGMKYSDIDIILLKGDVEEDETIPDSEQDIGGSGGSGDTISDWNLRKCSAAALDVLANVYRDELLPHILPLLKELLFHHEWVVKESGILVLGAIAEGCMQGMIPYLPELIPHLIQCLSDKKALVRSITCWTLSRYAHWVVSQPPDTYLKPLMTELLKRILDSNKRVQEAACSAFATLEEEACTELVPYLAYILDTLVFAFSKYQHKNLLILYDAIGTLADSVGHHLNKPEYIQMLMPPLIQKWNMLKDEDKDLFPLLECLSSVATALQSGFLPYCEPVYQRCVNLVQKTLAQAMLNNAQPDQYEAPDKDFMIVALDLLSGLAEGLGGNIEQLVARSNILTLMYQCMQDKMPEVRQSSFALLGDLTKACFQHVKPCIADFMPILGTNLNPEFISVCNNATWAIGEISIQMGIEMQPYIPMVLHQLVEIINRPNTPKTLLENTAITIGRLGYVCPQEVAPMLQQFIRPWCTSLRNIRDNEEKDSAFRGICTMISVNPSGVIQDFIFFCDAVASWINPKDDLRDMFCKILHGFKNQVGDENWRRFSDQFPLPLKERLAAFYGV
# Assays:
# [1] = target: T1, full-length Transportin-1 (Trn1), wild …; experiment: ITC
# [2] = target: T2, Trn1Δloop (HEAT repeat 8 loop replaced …); experiment: SEC-MALS
# [3] = target: T1, full-length Transportin-1 (Trn1), wild …; experiment: SEC-MALS
Kd [1] [nM],stoichiometry N [2] [molar ratio],stoichiometry N [3] [molar ratio],Binder
200,1,1,"PPARγ (DHL), residues 102-505, purified (domain or fragment, human, UniProt P37231-1 102-505, looked up) YQSAIKVEPASPPYYSEKTQLYNKPHEEPSNSLMAIECRVCGDKASGFHYGVHACEGCKGFFRRTIRLKLIYDRCDLNCRIHKKSRNKCQYCRFQKCLAVGMSHNAIRFGRMPQAEKEKLLAEISSDIDQLNPESADLRALAKHLYDSYIKSFPLTKAKARAILTGKTTDKSPFVIYDMNSLMMGEDKIKFKHITPLQEQSKEVAIRIFQGCQFRSVEAVQEITEYAKSIPGFVNLDLNDQVTLLKYGVHEIIYTMLASLMNKDGVLISEGQGFMTREFLKSLRKPFGDFMEPKFEFAVKFNALELDDSDLAIFIAVIILSGDRPGLLNVKPIEDIQDNLLQALELQLKLNHPESSQLFAKLLQKMTDLRQIVTEHVQLLQVIKKTETDMSLHPLLQEIYKDLY"
,1,1,"PPARγ (DBD), residues 135-209, purified (domain or fragment, human, UniProt P37231-1 135-209, looked up) MAIECRVCGDKASGFHYGVHACEGCKGFFRRTIRLKLIYDRCDLNCRIHKKSRNKCQYCRFQKCLAVGMSHNAIR"
